In the nanobody polyreactivity screen of Harvey et al. (2022):

Assay: yeast display, Sf9 membrane polyspecificity reagent, FACS + sequencing; frameworks hold sequencing errors
Summary of the method: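 Nanobodies from a synthetic yeast display library (Saccharomyces cerevisiae BJ5465), induced 36–48 hours with galactose, were stained 1 hour at 4 °C with 10% biotinylated, detergent-solubilized Sf9 membrane reagent, enriched on streptavidin microbeads, then FACS-sorted. Anti-HA (expression) and streptavidin (reagent binding) fluorescence set low and high (top ~1%) gates. Polyreactivity labels come from the gate of origin. Genes were colony-PCR amplified, MiSeq 2 × 250 sequenced and filtered by CDR length.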

With “QDQLVESGGGLVQAGGSLRLSCAASGRIFQGYAMGWYRQAPGKERELVAAITLSGGSTYYADSVKGRFTISRDNAKNTVYLQMNSLKPEDTAVYYCNAYYPDEPSLYDYWGQGTQVTVSS” the “polyreactivity (PSR sort gate)” value was “low polyreactivity”.

For “QVQRVESGGGLVQARASLRLSCAASGSIFPHYAMGWYRQAPGKERDLVATIRSRSGSTYYADSVKGRFTISRDNAKNTVYLQMNSLKPEDTAVYYCAARYYKERYWGQGTQVTVSS”, the “polyreactivity (PSR sort gate)” value was “low polyreactivity”.

In the case of “QVQLVESGGALVQAGGSLGLICAASGSIFRWYAMGWYRQAPGKERELVASINSSGDRTYYADSVKGRFTISRDKAKKTVFLQMNSLNPEDTAVYNCAAQISVKVDFWGQGTQVTVSS”, the “polyreactivity (PSR sort gate)” value is reported as “high polyreactivity”.

With “QVQLVESGGGLVQGGGSLRLSCASSGSIFGWNAMGWYRPAPGKERELVAAISFSGSCTFYADSVKGRFTISRDNAKNTVYLQMNSLKPEDTAVYDCAAEPYSVYEYYYWGQGTQVTGSS” the “polyreactivity (PSR sort gate)” value was “high polyreactivity”.

In the case of “QVQLVESGGGLVQAGGSLRLSCAASGSIFVEYVMGWYRQAPGKERELVADISWRDGDTYYADSVKGRFTISRDNAKNTVYLQMNSLKPEDTAVYFCAADVIVPESYGYWPLSYYYWGQGTQVTVSS”, the “polyreactivity (PSR sort gate)” value is reported as “low polyreactivity”.

With “QVQLVESGGGLVQAGASLRLSCAASGRIFPTYAMGWYRQAPGKEMEFVAAISRSGGRTYYADSVKGRFTISRDHAKNTVYLQMNSLKPEDTAVYYCNAEGDPYVDFPSRSTGYDYWGQGTQVTVSS” the “polyreactivity (PSR sort gate)” value was “high polyreactivity”.

In the case of “QVQLVESGGGLVQAGGSLRLSCAASGRTFTSNAMGWYRQAPGKERELVAAISNRGTRTYYADSVKGRFTISRDNAKNTVYLQMNSLKPEDTAVYYCAASERDQRFKHYYWGQGTQVTVSS”, the “polyreactivity (PSR sort gate)” value is reported as “high polyreactivity”.

With “QVQLVESGGGLVQAGGSLRLSGAATGSIFKIMGWYRQAPGKERELVAAISSSVGNTYYADSVKGRFTISRDNAKNTVYLQMNSLKPEDTAVYYCAAQSKYYQYYSWGQRTQVTVSS” the “polyreactivity (PSR sort gate)” value was “high polyreactivity”.

With “QVQLVESGGGLVQAGGSLRLSCAASGSIFEPYVMGWYRQAPGKERELVAAIRQTGGSTYYADSVKGRFTISRDNAKNTVYLQMNSLKPEDTAVYYCNAEQNPSALYDYRGVEGEMGYWGQGTQVTVSS” the “polyreactivity (PSR sort gate)” value was “low polyreactivity”.

In the case of “QVQLVESGGGLVQAGGSLRLSCAASGSIFKIYAMGWYRQAHGKERELVAAISRRGSSTSYADSVKGRFTISRDNAKNTVYLQMNSLKPEDTAVYYCAARYISNPMDYWGQGTQVTVSS”, the “polyreactivity (PSR sort gate)” value is reported as “high polyreactivity”.

In the case of “QVQLVESGGGLVQAGGSLRLSCAASGSTVNKYAMGWYRHAPGKERELVAAITTSGGRTYYADSVKGRFTISRDNAKNTVYLQMNSLKPEDTAVYYCNARIRRNYAYPKGESWGQGTQVTVSS”, the “polyreactivity (PSR sort gate)” value is reported as “high polyreactivity”.

With “QVQLVESGGGLVQAGGSLRLICAASGSTFYFYAMGWYRQAPGKERELVAVISSGGSTYYADSVKGRFTISRDNAKNTVYLQMNSLKPEDTAVYYCAAYYYYTLYYRYDYWGQGTQVNVSS” the “polyreactivity (PSR sort gate)” value was “low polyreactivity”.

For “QVQLLESCGGLVQAGGSLRLSCAASGGTFQRYAMGWYRQAPGKERELVAAISSGGRTYYADSVKGRFTISRDNAKNTVYLEMNSLKAEDNAVYYCNAVGWTQRGRMFEYWGQGTQVTVSS”, the “polyreactivity (PSR sort gate)” value was “high polyreactivity”.

With “QVQLVESAGGLVQAGGSLRLTCAASGRTFHHNAMGWYRQPPGKERELFAAITSVGNTYADSVKGRFTISRDNAKNTVYLLMNSMKPEDTAVYYCNARIYDSRFYWSPATSRFEYWGQGTQVTLSS” the “polyreactivity (PSR sort gate)” value was “low polyreactivity”.

With “QVQLVETGGGLVQAGGSLRLSSGASGFIFVRNAMGWYRQAPGKEREFVAAINSSGGRTYYADSVKGRFTISRDNANNTVNLQMNSLKPEDTAVYYCAARPQPKKFYYWGQGTQETVSS” the “polyreactivity (PSR sort gate)” value was “high polyreactivity”.

For “QVQLVESGGGLVQAGGSLRLSCAASGSIFGAYTMGWYRQAPGKEREFVAVISKGGTNTYYADSVKGRFTISRDNAKNTVYLQMNSLKPEDTAVYYCAARAYPTWRTYYYWGQGTQVTVSS”, the “polyreactivity (PSR sort gate)” value was “high polyreactivity”.

In the case of “QVQLVESGGGLVQAGGSLRLSCAASGGTFGKYTMGWSRQAPGKERELVAAINKSGGSTYYADSVKGRFTISRDNAKNTVYLQMNSLKPEDTAVYYCAAGTYFLSREYNYWGQGTQVTVSS”, the “polyreactivity (PSR sort gate)” value is reported as “low polyreactivity”.

For “QVQLVESGRGLVQAGGSLRLSCAASAVSFISYAMGWYRQAPGKERELVAAISRGGSSTYYADSVKGRFTISRDNAKNTVYLQMNSLKPEDTAVYYCNKAYHRRDSEFGYSGQGTQVTVSS”, the “polyreactivity (PSR sort gate)” value was “high polyreactivity”.

With “QVQLVESGGGLVQAGGSLRISCAASGNIFSVNAMGWYRQAPGKEREFVAAISGSGGSTYYADSVKGRFTISRDNAKNTVYLQMNSLKPEDTAVYYCAKRWYHPSSLPRYVFRGVDYWGQGTQVTVSS” the “polyreactivity (PSR sort gate)” value was “high polyreactivity”.

With “QVQLVESGGGLVQAGGSLRLSCAASGIIFDVYAMGWYRQAPGKERELVAAISKRGGRTYYADSVKGRFTISRDNAKNTVYLQMNSLKPEDTAVYYCAADGQYKHFDYWGQGTQVTVSS” the “polyreactivity (PSR sort gate)” value was “high polyreactivity”.

With “QFQLVESGGGIVQAGGSLRIAVRPPDLPSTLNHLGWSRQAPGKERSVVAAITRGGSTNYADSVKGRFTISRDNAKNTVYLQMNSLKQEDTAVYYCAAPYAGWRDGGDYWGQGTQVTVSS” the “polyreactivity (PSR sort gate)” value was “low polyreactivity”.

With “QDQLVESGGGLVQAGGSLRLSCAASGRIFGYYTMGWSRPAPGKERELVAGITRRGGRTYYADSVKGRFTISRDNAKNTVYLQMNSLKPEDTGVYYCAVRSGVNFYYWGQGTQVTVSS” the “polyreactivity (PSR sort gate)” value was “high polyreactivity”.

In the case of “QVQHVESGGGLVQAGGSLRLSCAPSGRIFRYNAMGWYRQAPGKERELVAVISTRGGSTFYADSVKGRFTISRDNAKNTVYFQMNSLKPEDTAVYSCAAYRRHPFGGGYWGQGTQVTVSS”, the “polyreactivity (PSR sort gate)” value is reported as “high polyreactivity”.

With “QVQLVESGGGLVQAGGSLRLSCAASGSIFPSYAMGWYRQAPGKERELVAAISKSGGRTKYADSVKGRFTISRDNAKNTVYLQMNSLKPEDTAVYYCAAYAYFHRREGYWGQGTQVTVSS” the “polyreactivity (PSR sort gate)” value was “high polyreactivity”.

For “QVQLVESGGGLVQAGGSLRLSCAASGGIFDTYVMGWYRQAPGKETELVAAISSSGSTTYADSVKGRFTISRDNAKNTVYLQMNSLKPEDTAVYYCNADYSTIWRYDYWGQGTQVTVSS”, the “polyreactivity (PSR sort gate)” value was “low polyreactivity”.

For “QVQLVESGGGLVQAGGSLRLSCAASGFTFNYNTMGWYRPAPGKERELVARISRSGGRTYYADSVKGRFTISRDNAKNTVYLQMNSLKPEDTAVYYCNTDYYGVRHRYDYWGQGTQVTVSS”, the “polyreactivity (PSR sort gate)” value was “high polyreactivity”.

With “QVQLVESGGGLVQAGGSLRLSCPASGLTFGWYAMGWYRQAPGKERELVASITRRSGSTYYADSVKGRFTISRDNAKNTVYLQMNSLKPEDTAVYFWAARSRGTTRFDYWGQGTQVTVSS” the “polyreactivity (PSR sort gate)” value was “high polyreactivity”.

For “QVQLVQSVGGLVQAGGSLRLSCAATGRIFFSYAMGWYRQAPGKERELVAAISWDGGSTYYADSVKGRFTISRDNAKNTDYLQMTSLKPEDTAVSYCNADTHFPPSSSSYSPSLLDYWGQGTQVTVSS”, the “polyreactivity (PSR sort gate)” value was “low polyreactivity”.

In the case of “QVQLVESGGGLVQAGGSLRLSSAASGITFCRNTMGWYRQAPGKERELVAAIDSGGNTYADSVKGRFTISRDNAKNTVNLHINSLKPEYTAVYYCAKDSGPRGSYGYAFDSWGQGTQVTVSS”, the “polyreactivity (PSR sort gate)” value is reported as “low polyreactivity”.

In the case of “QVQLVESGGGLVQAGGSLRLSCAASGFTFKINGMGWYRQATGKEREFVATIRTSTGRTNYADSVKGRFTISRDNAKNTVYLQMNSLKPEDTAVYYCAATFKSGMDYWGQGTQVTVSS”, the “polyreactivity (PSR sort gate)” value is reported as “high polyreactivity”.

With “QVQLVESGGGLVQAGGSLRLSCAASGLIFYRNAMGWYRQAPGKERELVAGITRGSNTYYADSVKGRFTISRVNAKNTVYLQMNSLKPEDTAVYYCAAQVPVLQRAGNTRFGYWGQGTQVTVSS” the “polyreactivity (PSR sort gate)” value was “low polyreactivity”.

With “QVQLVESGGGLVQAGGSLRLSCAASGSIFRYNAMGWYRQAPGKDRELVAAISSGGSTKYADSVKGRFTISRDNAKNTVYLQMNSMKPEDTAVYFCVARRARYDYWGQGTQVTVSS” the “polyreactivity (PSR sort gate)” value was “high polyreactivity”.

With “QVQLVESGGVLVQAGGSLRLSCAASGIIYYGYAMGWYRQAPRKERELVAAISRSGGSTYYADSVKGRFTISRDNAMNTVYFLMNSLKPEDTAVYYCAALVRTTSSYRYNFWGQGTQVTVSS” the “polyreactivity (PSR sort gate)” value was “high polyreactivity”.

With “QVQLVESGGGLVQAGGSLRLSCAASGSIFVEYAMGWYRQAPGKERELVASITWSSTSTYYADSVKGRFTISRDNAKNTVYLQMNSLKPEDTAVYYCNTEDYQYAPYEYDYWGQGTQVTVSS” the “polyreactivity (PSR sort gate)” value was “low polyreactivity”.

In the case of “QVQLVESGGGLVQAGGSLRLSCAASGGTFEYNAMGWYRQAPGKERELVAAISKSGGRTYYADSVKGRFTISRDNAKNTVYLQMNSLKPEDTAVYYCAKRYVWGQGTQVTVSS”, the “polyreactivity (PSR sort gate)” value is reported as “high polyreactivity”.

In the case of “QVQLVESGGGLVQAGGSLRLSCAASGSTFKSYAMGWYRQEPGKERELVAAITVSGGSTYYADSVKGRFTISRDNAKNTVYLQMNSLKPEDTAVYYCAADSVLLKDTGYDYWGQGTQVTVSS”, the “polyreactivity (PSR sort gate)” value is reported as “low polyreactivity”.

With “QVQLVESRGGLVQAGGSLRLSCAASGRIIGYNAMGCYRQAPGKERELVAAINSDGSKNYADSVKGRFTISRDNAKNTVYLQMNSLKPEDTAVYYSIKELYPVGDYEYWGQGSQVTVSS” the “polyreactivity (PSR sort gate)” value was “low polyreactivity”.

In the case of “QVLLVETGGGLVQAGGSLRLSCAASGLIFYDNMGWYRQAPGKERELVAAISSSGGSTSYADSVKGRFTISRDNAKNTVYLQMNSLKPEDTAVYYCAADSYPAYLGFVGFDYWGQGTQVTVSS”, the “polyreactivity (PSR sort gate)” value is reported as “low polyreactivity”.

With “QDQLVESGGGLVQAGGSLRLSCAASGRIFPYYAMGRYRQAPGKERELVASISGSGGRTYYADSVKGRFTISRDNAKNTVSLQMNSLKPEDTAVYYCAAYWYKVPGKYGYWGQGTQVTVSS” the “polyreactivity (PSR sort gate)” value was “high polyreactivity”.

In the case of “QVQLVESGGGLVQAGGSLRLSCAASGFIFYYYAMGWYRQAPGKVRELVAAISTDGGSTYYADSVKGRFTISRDNAKNTVYLQMNSLKPEDTADYYCNAPYYGWGYWPLEYIRYEYWGQGTQVTVSS”, the “polyreactivity (PSR sort gate)” value is reported as “low polyreactivity”.

With “QVQLVESGGGLVQAGGSLRLSCAASGIIFRDNAMGWYRQAPGKERELVAAIDSSGGTTYADSVKGRFTISRDNAKNTVYLQTHSLTPEDTAVYYCATEVYWTVSYYGYDYYGGNYYYWGQGTQVTVSS” the “polyreactivity (PSR sort gate)” value was “low polyreactivity”.

With “QVQLVESGGGLVQAGGSLRLSCAASGRILTSNAMGWYRQAPGKERELVAAITYSGDSTYYADSVKGRFTISRDTAKNTVYLQMNSLKPEDTEVYYCAADVLKHFYSFGDERGFPFDYWGQGTQVTVSS” the “polyreactivity (PSR sort gate)” value was “low polyreactivity”.

In the case of “QVQLQESGGGLVQAGGSLRLSCSASGYISHADEMGWYRQAPGKEHELVASISNGGSTNYADSVKGRFTISRDNAKNTVYLQMNSLKSEDTAVYYCAAWTGQVDIHYYWGQGTQVTVSS”, the “polyreactivity (PSR sort gate)” value is reported as “low polyreactivity”.
